In ChEMBL document CHEMBL1151754, “Structural and mechanistic studies of mofegiline inhibition of recombinant human monoamine oxidase B” (J Med Chem, 2008):

Substrate: NCCCCc1ccccc1
Assay: Activity of human MAOB

B1: Amine oxidase [flavin-containing] B (Homo sapiens) (protein)
chain: MSNKCDVVVVGGGISGMAAAKLLHDSGLNVVVLEARDRVGGRTYTLRNQKVKYVDLGGSYVGPTQNRILRLAKELGLETYKVNEVERLIHHVKGKSYPFRGPFPPVWNPITYLDHNNFWRTMDDMGREIPSDAPWKAPLAEEWDNMTMKELLDKLCWTESAKQLATLFVNLCVTAETHEVSALWFLWYVKQCGGTTRIISTTNGGQERKFVGGSGQVSERIMDLLGDRVKLERPVIYIDQTRENVLVETLNHEMYEAKYVISAIPPTLGMKIHFNPPLPMMRNQMITRVPLGSVIKCIVYYKEPFWRKKDYCGTMIIDGEEAPVAYTLDDTKPEGNYAAIMGFILAHKARKLARLTKEERLKKLCELYAKVLGSLEALEPVHYEEKNWCEEQYSGGCYTTYFPPGILTQYGRVLRQPVDRIYFAGTETATHWSGYMEGAVEAGERAAREILHAMGKIPEDEIWQSEPESVDVPAQPITTTFLERHLPSVPGLLRLIGLTTIFSATALGFLAHKRGLLVRV
kcat: 1.82 s⁻¹
